Experimental data as given in publication PMC8427195, “Dehydrogenation Mechanism of Three Stereoisomers of Butane-2,3-Diol in Pseudomonas putida KT2440” (Frontiers in Bioengineering and Biotechnology, 2021).

B1: R,R-BDH (PP0552), (2R,3R)-2,3-BDO dehydrogenase (Pseudomonas putida KT2440) (protein)
chain: MNDLSHTHMRAAVWHGRHDIRVEQVPLPADPAPGWVQIKVDWCGICGSDLHEYVAGPVFIPVEAPHPLTGIQGQCILGHEFCGHIAKLGEGVEGYAVGDPVAADACQHCGTCYYCTHGLYNICERLAFTGLMNNGAFAELVNVPANLLYRLPQGFPAEAGALIEPLAVGMHAVKKAGSLLGQTVVVVGAGTIGLCTIMCAKAAGAAQVIALEMSSARKAKAKEAGANVVLDPSQCDALAEIRALTAGLGADVSFECIGNKHTAKLAIDTIRKAGKCVLVGIFEEPSEFNFFELVSTEKQVLGALAYNGEFADVIAFIADGRLDIRPLVTGRIGLEQIVELGFEELVNNKEENVKIIVSPGVR

Assays:
[1] = target: (2R,3R)-2,3-BDO dehydrogenase (PP0552) of Pseudomonas putida KT2440 (Pseudomonas putida KT2440); assay: SEC; Superdex 200 10/300 GL gel filtration; eluent 50 mM sodium phosphate pH 7.2, 150 mM sodium chloride, 0.5 mL min^-1; native molecular weight estimated against standard proteins and compared with the monomer mass
purified protein [2] = substrate: C[C@H](O)[C@@H](C)O; assay: purified protein; details: oxidation with NAD+ (1 mM in general assay), 50 mM Tris-HCl pH 7.4, 30 °C
purified protein [3] = substrate: C[C@@H](O)[C@@H](C)O; assay: purified protein; details: oxidation with NAD+ (1 mM in general assay), 50 mM Tris-HCl pH 7.4, 30 °C
purified protein [4] = substrate: CC(=O)C(C)O; assay: purified protein; assay type: biochemical, Pseudomonas putida; details: reduction with NADH (0.2 mM in general assay), pH 7.4, 30 °C, apparent Km
purified protein [5] = substrate: NC(=O)C1=CN([C@@H]2O[C@H](COP(=O)(O)OP(=O)(O)OC[C@H]3O[C@@H](n4cnc5c(N)ncnc54)[C@H](O)[C@@H]3O)[C@@H](O)[C@H]2O)C=CC1; assay: purified protein; assay type: biochemical, Pseudomonas putida; details: reductive direction, pH 7.4, 30 °C, apparent Km, varied: cofactor
purified protein [6] = substrate: NC(=O)c1ccc[n+]([C@@H]2O[C@H](COP(=O)(O)OP(=O)(O)OC[C@H]3O[C@@H](n4cnc5c(N)ncnc54)[C@H](O)[C@@H]3O)[C@@H](O)[C@H]2O)c1; assay: purified protein; assay type: biochemical, Pseudomonas putida; details: oxidative direction, diol co-substrate not stated (10 mM in general assay), pH 7.4, 30 °C, varied: cofactor

Row | Molecule | stoichiometry N [1] | Km (purified protein [2]) [µM] | kcat (purified protein [2]) [s⁻¹] | kcat/Km (purified protein [2]) [M⁻¹ s⁻¹] | Km (purified protein [3]) [µM] | kcat (purified protein [3]) [s⁻¹] | kcat/Km (purified protein [3]) [M⁻¹ s⁻¹] | Km (purified protein [4]) [µM] | kcat (purified protein [4]) [s⁻¹] | kcat/Km (purified protein [4]) [M⁻¹ s⁻¹] | Km (purified protein [5]) [µM] | kcat (purified protein [5]) [s⁻¹] | kcat/Km (purified protein [5]) [M⁻¹ s⁻¹] | Km (purified protein [6]) [µM] | kcat (purified protein [6]) [s⁻¹] | kcat/Km (purified protein [6]) [M⁻¹ s⁻¹]
1 | (2R,3R)-2,3-BDO dehydrogenase (PP0552) of Pseudomonas putida KT2440 (enzyme) | 4 | – | – | – | – | – | – | – | – | – | – | – | – | – | – | –
2 | B1 | – | 251 ± 22 | 21.1 | 84300 | 155 ± 16 | 23.9 | 154000 | 101 ± 5 | 34.34 ± 0.256 | 341000 ± 16900 | 119 ± 22 | 53.3 ± 5.16 | 454000 ± 36600 | 825 ± 96 | 52.8 ± 3.8 | 64300 ± 3120
